Experimental data as given in the RNAGym collection of RNA variant scans (doi:10.1093/nar/gkz1192).

B1: CPEB3 Ribozyme (parent)
chain: UAACAGGGGGCCACAGCAGAAGCGUUCACGUCGCAGCCCCUGUCAGAUUCUGGUGAAUCUGCGAAUUCUGCUGUAUAUCUC

Variants of: B1
Experiment: self-cleavage, relative activity (ratio to wild type); higher = more cleavage; in vitro, sequencing
Procedure, shortened: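 Libraries of CPEB3 self-cleaving ribozyme mutants came from rounds of error-prone PCR and carried barcodes, which DNA sequencing matched to variants. In vitro transcription used T7 RNA polymerase at 37°C for 5 hours, with a further 15 min in DNase I before EDTA stopped the reaction; the ribozymes cleaved during both steps. The RNA was reverse transcribed with template switching and sequenced on Illumina. Relative activity is the cleaved/total read fraction of a variant divided by that of the unmutated ribozyme, averaged over three batches with at least 5 reads.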

Variant	self-cleavage
UAACAGAGGGCCACAGCAGAAGCGUUCACGUCGCAGCCCCUGUCAGAUUCGGGUGAAUCUGCGAAUUCUGCUGUAUAUCUC	0.1
UAACAGAGGGCCACAGCAGAAGCGUUCACGUCGCAGCCCCUGUCAGAUUCUGGAGAAUCUGCGAAUUCUGCUGUAUAUCUC	0.47
UAACAGAGGGCCACAGCAGAAGCGUUCACGUCGCAGCCCCUGUCAGAUUCUGGCGAAUCUGCGAAUUCUGCUGUAUAUCUC	0.38
UAACAGAGGGCCACAGCAGAAGCGUUCACGUCGCAGCCCCUGUCAGAUUCUGGGGAAUCUGCGAAUUCUGCUGUAUAUCUC	0.22
UAACAGAGGGCCACAGCAGAAGCGUUCACGUCGCAGCCCCUGUCAGAUUCUGGUGAAACUGCGAAUUCUGCUGUAUAUCUC	0.27
UAACAGAGGGCCACAGCAGAAGCGUUCACGUCGCAGCCCCUGUCAGAUUCUGGUGAACCUGCGAAUUCUGCUGUAUAUCUC	0.13
UAACAGAGGGCCACAGCAGAAGCGUUCACGUCGCAGCCCCUGUCAGAUUCUGGUGAAUCAGCGAAUUCUGCUGUAUAUCUC	0.37
UAACAGAGGGCCACAGCAGAAGCGUUCACGUCGCAGCCCCUGUCAGAUUCUGGUGAAUCCGCGAAUUCUGCUGUAUAUCUC	0.11
UAACAGAGGGCCACAGCAGAAGCGUUCACGUCGCAGCCCCUGUCAGAUUCUGGUGAAUCUGCGAACUCUGCUGUAUAUCUC	0.13
UAACAGAGGGCCACAGCAGAAGCGUUCACGUCGCAGCCCCUGUCAGAUUCUGGUGAAUCUGCGAAUACUGCUGUAUAUCUC	0.17
UAACAGAGGGCCACAGCAGAAGCGUUCACGUCGCAGCCCCUGUCAGAUUCUGGUGAAUCUGCGAAUCCUGCUGUAUAUCUC	0.25
UAACAGAGGGCCACAGCAGAAGCGUUCACGUCGCAGCCCCUGUCAGAUUCUGGUGAAUCUGCGAAUUCAGCUGUAUAUCUC	0.39
UAACAGAGGGCCACAGCAGAAGCGUUCACGUCGCAGCCCCUGUCAGAUUCUGGUGAAUCUGCGAAUUCCGCUGUAUAUCUC	0.26
UAACAGAGGGCCACAGCAGAAGCGUUCACGUCGCAGCCCCUGUCAGAUUCUGGUGAAUCUGCGAAUUCUGCCGUAUAUCUC	0.48
UAACAGAGGGCCACAGCAGAAGCGUUCACGUCGCAGCCCCUGUCAGAUUCUGGUGAAUCUGCGAAUUCUGCUGAAUAUCUC	0.09
UAACAGAGGGCCACAGCAGAAGCGUUCACGUCGCAGCCCCUGUCAGAUUCUGGUGAAUCUGCGAAUUCUGCUGCAUAUCUC	0.5
UAACAGAGGGCCACAGCAGAAGCGUUCACGUCGCAGCCCCUGUCAGAUUCUGGUGAAUCUGCGAAUUCUGCUGUAUACCUC	0.15
UAACAGAGGGCCACAGCAGAAGCGUUCACGUCGCAGCCCCUGUCAGAUUCUGGUGAAUCUGCGAAUUCUGCUGUAUAGCUC	0.08
UAACAGAGGGCCACAGCAGAAGCGUUCACGUCGCAGCCCCUGUCAGAUUCUGGUGAAUCUGCGAAUUCUGCUGUAUAUCAC	0.25
UAACAGAGGGCCACAGCAGAAGCGUUCACGUCGCAGCCCCUGUCAGAUUCUGGUGAAUCUGCGAAUUCUGCUGUAUAUCCC	0.29
UAACAGCGGGCCACAGCAGAAGCGUUCACGUCGCAGCCCCUGUCAGAUUCUGGUGAAUCUGCGAAUUCUGCUGUAUAUCUC	0.29
UAACAGCGGGCCCCAGCAGAAGCGUUCACGUCGCAGCCCCUGUCAGAUUCUGGUGAAUCUGCGAAUUCUGCUGUAUAUCUC	0.09
UAACAGCGGGCCGCAGCAGAAGCGUUCACGUCGCAGCCCCUGUCAGAUUCUGGUGAAUCUGCGAAUUCUGCUGUAUAUCUC	0.32

Variant	self-cleavage
UAACAGCGGGCCUCAGCAGAAGCGUUCACGUCGCAGCCCCUGUCAGAUUCUGGUGAAUCUGCGAAUUCUGCUGUAUAUCUC	0.26
UAACAGCGGGCCACGGCAGAAGCGUUCACGUCGCAGCCCCUGUCAGAUUCUGGUGAAUCUGCGAAUUCUGCUGUAUAUCUC	0.21
UAACAGCGGGCCACUGCAGAAGCGUUCACGUCGCAGCCCCUGUCAGAUUCUGGUGAAUCUGCGAAUUCUGCUGUAUAUCUC	0.18
UAACAGCGGGCCACAGCGGAAGCGUUCACGUCGCAGCCCCUGUCAGAUUCUGGUGAAUCUGCGAAUUCUGCUGUAUAUCUC	0.33
UAACAGCGGGCCACAGCAGUAGCGUUCACGUCGCAGCCCCUGUCAGAUUCUGGUGAAUCUGCGAAUUCUGCUGUAUAUCUC	0.22
UAACAGCGGGCCACAGCAGAGGCGUUCACGUCGCAGCCCCUGUCAGAUUCUGGUGAAUCUGCGAAUUCUGCUGUAUAUCUC	0.34
UAACAGCGGGCCACAGCAGAAGCGUUCACGUCGCCGCCCCUGUCAGAUUCUGGUGAAUCUGCGAAUUCUGCUGUAUAUCUC	0.09
UAACAGCGGGCCACAGCAGAAGCGUUCACGUCGCGGCCCCUGUCAGAUUCUGGUGAAUCUGCGAAUUCUGCUGUAUAUCUC	0.31
UAACAGCGGGCCACAGCAGAAGCGUUCACGUCGCAGCCCCUGUCGGAUUCUGGUGAAUCUGCGAAUUCUGCUGUAUAUCUC	0.26
UAACAGCGGGCCACAGCAGAAGCGUUCACGUCGCAGCCCCUGUCAGGUUCUGGUGAAUCUGCGAAUUCUGCUGUAUAUCUC	0.43
UAACAGCGGGCCACAGCAGAAGCGUUCACGUCGCAGCCCCUGUCAGAUUCUGGUGGAUCUGCGAAUUCUGCUGUAUAUCUC	0.23
UAACAGCGGGCCACAGCAGAAGCGUUCACGUCGCAGCCCCUGUCAGAUUCUGGUGAUUCUGCGAAUUCUGCUGUAUAUCUC	0.19
UAACAGCGGGCCACAGCAGAAGCGUUCACGUCGCAGCCCCUGUCAGAUUCUGGUGAAUCUGCGGAUUCUGCUGUAUAUCUC	0.35
UAACAGCGGGCCACAGCAGAAGCGUUCACGUCGCAGCCCCUGUCAGAUUCUGGUGAAUCUGCGAGUUCUGCUGUAUAUCUC	0.22
UAACAGCGGGCCACAGCAGAAGCGUUCACGUCGCAGCCCCUGUCAGAUUCUGGUGAAUCUGCGAAUUCUGCUGUUUAUCUC	0.31
UAACAGCGGGCCACAGCAGAAGCGUUCACGUUGCAGCCCCUGUCAGAUUCUGGUGAAUCUGCGAAUUCUGCUGUAUAUCUC	0.12
UAACAGCGGGCCACAGCAGAAGCGUUCACGUCGCAGUCCCUGUCAGAUUCUGGUGAAUCUGCGAAUUCUGCUGUAUAUCUC	0.24
UAACAGCGGGCCACAGCAGAAGCGUUCACGUCGCAGCCCCUGUCAGAUUAUGGUGAAUCUGCGAAUUCUGCUGUAUAUCUC	0.29
UAACAGCGAGCCACAGCAGAAGCGUUCACGUCGCAGCCCCUGUCAGAUUCUGGUGAAUCUGCGAAUUCUGCUGUAUAUCUC	0.23
UAACAGCGUGCCACAGCAGAAGCGUUCACGUCGCAGCCCCUGUCAGAUUCUGGUGAAUCUGCGAAUUCUGCUGUAUAUCUC	0.36
UAACAGCGGGCCACAGCAGAAGCCUUCACGUCGCAGCCCCUGUCAGAUUCUGGUGAAUCUGCGAAUUCUGCUGUAUAUCUC	0.15
UAACAGCGGGCCACAGCAGAAGCGUUCACUUCGCAGCCCCUGUCAGAUUCUGGUGAAUCUGCGAAUUCUGCUGUAUAUCUC	0.14
UAACAGCGGGCCACAGCAGAAGCGUUCACGUCGCAGCCCCUGUCAGAUUCUGGUGAAUCUCCGAAUUCUGCUGUAUAUCUC	0.1

Variant	self-cleavage
UAACAGCGGGCCACAGCAGAAGCGAUCACGUCGCAGCCCCUGUCAGAUUCUGGUGAAUCUGCGAAUUCUGCUGUAUAUCUC	0.27
UAACAGCGGGCCACAGCAGAAGCGCUCACGUCGCAGCCCCUGUCAGAUUCUGGUGAAUCUGCGAAUUCUGCUGUAUAUCUC	0.27
UAACAGCGGGCCACAGCAGAAGCGUCCACGUCGCAGCCCCUGUCAGAUUCUGGUGAAUCUGCGAAUUCUGCUGUAUAUCUC	0.35
UAACAGCGGGCCACAGCAGAAGCGUUCACGACGCAGCCCCUGUCAGAUUCUGGUGAAUCUGCGAAUUCUGCUGUAUAUCUC	0.25
UAACAGCGGGCCACAGCAGAAGCGUUCACGCCGCAGCCCCUGUCAGAUUCUGGUGAAUCUGCGAAUUCUGCUGUAUAUCUC	0.41
UAACAGCGGGCCACAGCAGAAGCGUUCACGUCGCAGCCCCCGUCAGAUUCUGGUGAAUCUGCGAAUUCUGCUGUAUAUCUC	0.2
UAACAGCGGGCCACAGCAGAAGCGUUCACGUCGCAGCCCCUGACAGAUUCUGGUGAAUCUGCGAAUUCUGCUGUAUAUCUC	0.24
UAACAGCGGGCCACAGCAGAAGCGUUCACGUCGCAGCCCCUGCCAGAUUCUGGUGAAUCUGCGAAUUCUGCUGUAUAUCUC	0.36
UAACAGCGGGCCACAGCAGAAGCGUUCACGUCGCAGCCCCUGUCAGACUCUGGUGAAUCUGCGAAUUCUGCUGUAUAUCUC	0.4
UAACAGCGGGCCACAGCAGAAGCGUUCACGUCGCAGCCCCUGUCAGAUACUGGUGAAUCUGCGAAUUCUGCUGUAUAUCUC	0.26
UAACAGCGGGCCACAGCAGAAGCGUUCACGUCGCAGCCCCUGUCAGAUUCCGGUGAAUCUGCGAAUUCUGCUGUAUAUCUC	0.28
UAACAGCGGGCCACAGCAGAAGCGUUCACGUCGCAGCCCCUGUCAGAUUCUGGAGAAUCUGCGAAUUCUGCUGUAUAUCUC	0.22
UAACAGCGGGCCACAGCAGAAGCGUUCACGUCGCAGCCCCUGUCAGAUUCUGGCGAAUCUGCGAAUUCUGCUGUAUAUCUC	0.34
UAACAGCGGGCCACAGCAGAAGCGUUCACGUCGCAGCCCCUGUCAGAUUCUGGUGAAUCCGCGAAUUCUGCUGUAUAUCUC	0.2
UAACAGCGGGCCACAGCAGAAGCGUUCACGUCGCAGCCCCUGUCAGAUUCUGGUGAAUCUGCGAACUCUGCUGUAUAUCUC	0.5
UAACAGCGGGCCACAGCAGAAGCGUUCACGUCGCAGCCCCUGUCAGAUUCUGGUGAAUCUGCGAAUCCUGCUGUAUAUCUC	0.19
UAACAGCGGGCCACAGCAGAAGCGUUCACGUCGCAGCCCCUGUCAGAUUCUGGUGAAUCUGCGAAUUCCGCUGUAUAUCUC	0.2
UAACAGCGGGCCACAGCAGAAGCGUUCACGUCGCAGCCCCUGUCAGAUUCUGGUGAAUCUGCGAAUUCUGCCGUAUAUCUC	0.37
UAACAGCGGGCCACAGCAGAAGCGUUCACGUCGCAGCCCCUGUCAGAUUCUGGUGAAUCUGCGAAUUCUGCGGUAUAUCUC	0.27
UAACAGCGGGCCACAGCAGAAGCGUUCACGUCGCAGCCCCUGUCAGAUUCUGGUGAAUCUGCGAAUUCUGCUGUAUAUCAC	0.37
UAACAGCGGGCCACAGCAGAAGCGUUCACGUCGCAGCCCCUGUCAGAUUCUGGUGAAUCUGCGAAUUCUGCUGUAUAUCCC	0.27
UAACAGUGGGCCACAGCAGAAGCGUUCACGUCGCAGCCCCUGUCAGAUUCUGGUGAAUCUGCGAAUUCUGCUGUAUAUCUC	0.25
